Patent publication US20050032692A1 (BOARD OF TRUSTEES OF THE UNIVERSITY OF ILLINOIS, published 2005)

B1: HA-p19^ARF protein, wild type (other, UniProt Q64364 1-169, looked up, not shown: small tags and cut ends)
chain: MGRRFLVTVRIQRAGRPLQERVFLVKFVRSRRPRTASCALAFVNMLLRLERILRRGPHRNPGPGDDDGQRSRSSSSAQLRCRFELRGPHYLLPPGARRSAGRLPGHAGGAARVRGSAGCARCLGSPAARLGPRAGTSRHRAIFAFRWVLFVFRWVVFVYRWERRPDRRA
notes: also called HA tagged p19; WT p19
B2: CMV T7-FoxM1B L641A mutant protein (other, not shown: small tags and cut ends)
chain: MKTSPRRPLILKRRRLPLPVQNAPSETSEEEPKRSPAQQESNQAEASKEVAESNSCKFPAGIKIINHPTMPNTQVVAIPNNANIHSIITALTAKGKESGSSGPNKFILISCGGAPTQPPGLRPQTQTSYDAKRTEVTLETLGPKPAARDVNLPRPPGALCEQKRETCADGEAAGCTINNSLSNIQWLRKMSSDGLGSRSIKQEMEEKENCHLEQRQVKVEEPSRPSASWQNSVSERPPYSYMAMIQFAINSTERKRMTLKDIYTWIEDHFPYFKHIAKPGWKNSIRHNLSLHDMFVRETSANGKVSFWTIHPSANRYLTLDQVFKQQKRPNPELRRNMTIKTELPLGARRKMKPLLPRVSSYLVPIQFPVNQSLVLQPSVKVPLPLAASLMSSELARHSKRVRIAPKVLLAEEGIAPLSSAGPGKEEKLLFGEGFSPLLPVQTIKEEEIQPGEEMPHLARPIKVESPPLEEWPSPAPSFKEESSHSWEDSSQSPTPRPKKSYSGLRSPTRCVSEMLVIQHRERRERSRSRRKQHLLPPCVDEPELLFSEGPSTSRWAAELPFPADSSDPASQLSYSQEVGGPFKTPIKETLPISSTPSKSVLPRTPESWRLTPPAKVGGLDFSPVQTSQGASDPLPDPLGAMDLSTTPLQSAPPLESPQRLLSSEPLDLISVPFGNSSPSDIDVPKPGSPEPQVSGLAANRSLTEGLVLDTMNDSLSKILLDISFPGLDEDPLGPDNINWSQFIPELQ
notes: also called CMV FoxM1B L641A

Assays:
GFP-FoxM1B 1-688 protein = biological target: T1, GFP-FoxM1B 1-688 protein (human, UniProt Q08050 1-703); experiment: Co-IP from transfected U2OS extracts
T1 construct: C-terminal truncation; construction not described; not shown: GFP
T1 sequence: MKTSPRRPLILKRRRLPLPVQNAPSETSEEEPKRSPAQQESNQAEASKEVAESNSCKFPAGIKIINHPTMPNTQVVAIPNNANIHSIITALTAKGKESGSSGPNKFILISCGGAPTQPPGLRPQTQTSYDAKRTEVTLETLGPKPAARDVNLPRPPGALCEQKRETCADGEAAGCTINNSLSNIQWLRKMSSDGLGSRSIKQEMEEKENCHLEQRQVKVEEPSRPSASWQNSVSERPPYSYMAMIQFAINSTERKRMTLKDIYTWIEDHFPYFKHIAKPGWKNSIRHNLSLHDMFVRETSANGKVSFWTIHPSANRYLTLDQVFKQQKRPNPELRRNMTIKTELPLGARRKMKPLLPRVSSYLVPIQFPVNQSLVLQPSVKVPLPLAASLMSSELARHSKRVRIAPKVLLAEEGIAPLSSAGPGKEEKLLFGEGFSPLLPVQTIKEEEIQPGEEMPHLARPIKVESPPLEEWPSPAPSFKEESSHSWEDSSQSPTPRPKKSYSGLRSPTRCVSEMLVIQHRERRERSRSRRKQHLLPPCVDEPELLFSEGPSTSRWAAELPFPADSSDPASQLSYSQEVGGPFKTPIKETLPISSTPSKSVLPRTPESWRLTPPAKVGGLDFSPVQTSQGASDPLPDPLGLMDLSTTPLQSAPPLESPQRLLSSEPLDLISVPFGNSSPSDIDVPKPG

Cdk2 protein = Cdk2 protein (UniProt P24941 1-298); experiment: Co-IP from transfected U2OS extracts with Cdk2 antibody, Western blot with T7 tag antibody

Row | Binder | binding result (GFP-FoxM1B 1-688 protein) | binding result (Cdk2 protein)
1 | B1 | no binding | –
2 | B2 | – | no binding
